One data set concerns HEK-293 cells. The experiment in a line: Fluorescence versus membrane potential under whole-cell voltage clamp (ramp, step, frequency response, noise). The format is cell-based, human. How it is done:
Fluorescence of Arch 3 in HEK 293 cells was readily imaged in an inverted fluorescence microscope with red illumination (λ=640 nm, I=540 W/cm^2), a high numerical aperture objective, a Cy5 filter set, and an EMCCD camera. […] Cells not expressing Arch were not fluorescent.
HEK-293 cells were grown at 37° C., 5% CO2, in DMEM supplemented with 10% FBS and penicillin-streptomycin. Plasmids were transfected using LIPOFECTAMINE™ and PLUS reagent (Invitrogen) following the manufacturer's instructions, and assayed between 48-72 hours later. The day before recording, cells were re-plated onto glass-bottom dishes (MatTek) at a density of ˜5000 cells/cm^2.
The concentration of endogenous retinal in the HEK cells was not known, so the cells were supplemented with retinal by diluting stock retinal solutions (40 mM, DMSO) in growth medium to a final concentration of 5 μM, and then placing the cells back in the incubator for 1-3 hours. All imaging and electrophysiology were performed in Tyrode's buffer (containing, in mM: 125 NaCl, 2 KCl, 3 CaCl2, 1 MgCl2, 10 HEPES, 30 glucose pH 7.3, and adjusted to 305-310 mOsm with sucrose). Only HEK cells having reversal potentials between −10 and −40 mV were included in the analysis.
(§1) Simultaneous fluorescence and whole-cell patch clamp recordings were acquired on a home-built, inverted epifluorescence microscope at room temperature. A diode laser operating at 100 mW, 640 nm (CrystaLaser, DL638-100-O) provided wide-field illumination at an intensity typically between 500-2000 W/cm^2. To minimize background signal from out-of-focus debris, illumination was often performed in through-the-objective total internal reflection fluorescence (TIRF) mode. Fluorescence emission was collected using a 60×, 1.45 NA oil immersion objective (Olympus), and separated from scattered excitation using a 660-760 nm bandpass emission filter (Chroma). For fast imaging of dynamic fluorescence responses and action potentials, images were acquired on an Andor iXon^+ 860 camera operating at up to 2,000 frames/s (using a small region of interest and pixel binning). Slower images with higher spatial resolution were acquired on an Andor iXon^+ 897 EMCCD. Custom software written in LabView (National Instruments) was used to synchronize illumination, collection of images, recording of membrane potential and cell current, and application of electrical stimuli to the cell.
Filamented glass micropipettes (WPI) were pulled to a tip resistance of 3-10 MΩ, fire polished, and filled with internal solution (containing, in mM: 125 Potassium gluconate, 8 NaCl, 0.6 MgCl2, 0.1 CaCl2, 1 EGTA, 10 HEPES, 4 Mg-ATP, 0.4 Na-GTP, pH 7.3; adjusted to 295 mOsm with sucrose). The micropipettes were positioned with a Burleigh PCS 5000 micromanipulator. Whole-cell, voltage clamp recordings were acquired using an AxoPatch 200B amplifier (Molecular Devices), filtered at 2 kHz with the internal Bessel filter, and digitized with a National Instruments PCIE-6323 acquisition board at 10 kHz. Ambient 60 Hz noise was removed using a HumBug Noise Eliminator (AutoMate Scientific). For experiments requiring rapid modulation of transmembrane potential, series resistance and whole-cell capacitance were predicted to 95% and corrected to ˜50%. Electrical stimuli were generated using the PCIE-6323 acquisition board and sent to the AXOPATCH™, which then applied these signals in either constant current or constant voltage mode.
To measure fluorescence as a function of membrane potential, a triangle wave was applied, with amplitude from −150 mV to +150 mV and period 12 s, with video recording at 100 ms per frame. A pixel weight matrix was calculated according to Eq. S2 and applied to the movie images to generate a fluorescence number for each frame. These fluorescence values were divided by their minimum value (at V=−150 mV). The result is plotted as a function of Vin FIGS. 7 and 8. […]

Data set [1] relates to cultured rat hippocampal neurons. Put plainly: Optical recording of action potentials under whole cell current clamp. The data set is classed as cell-based.
From the text: We tested Arch 3 as a voltage indicator in cultured rat hippocampal neurons, using viral delivery. […] Individual spikes were accompanied by clearly identifiable increases of fluorescence (FIG. 7A). At a 2 kHz image acquisition rate, the signal-to-noise ratio in the fluorescence (spike amplitude:baseline noise) was 10.5.
as §1
E18 rat hippocampi were purchased from BrainBits and mechanically dissociated in the presence of 1 mg/mL papain (Worthington) before plating at 5,000-30,000 cells per dish on poly-L-lysine and Matrigel-coated (BD Biosciences) glass-bottom dishes. Cells were incubated in N+ medium (100 mL Neurobasal medium, 2 mL B27 supplement, 0.5 mM glutamine, 25 μM glutamate, penicillin-streptomycin) for 3 hours. […]
A spike identification algorithm was developed that could be applied either to electrically recorded V(t) or to optically determined V(t). […]

The test system of a further data set is neurons. The experiment in a line: Light-induced photocurrent and perturbation of membrane potential in neurons. The format is cell-based, rat. As to conditions: I=1800 W/cm2, TIR mode. The text has this: Under illumination conditions typically used for imaging neural activity (I=1800 W/cm2 in total internal reflection (TIR) mode), the light-induced outward photocurrent was typically 10 pA in neurons expressing Arch 3 WT. Under current-clamp conditions this photocurrent shifted the resting potential of the neurons by up to −20 mV. For neurons near their activation threshold, this photocurrent could suppress firing (FIG. 9A), so we explored the non-pumping variant D95N as a voltage indicator in neurons.
Whole-cell current clamp recordings were obtained from mature neurons under the same conditions used for HEK cells recordings. Series resistance and pipette capacitance were corrected. Only neurons having resting potentials between −50 and −70 mV were used in the analysis.

B1: Arch 3 WT: Archaerhodopsin 3, light-driven proton pump from Halorubrum sodomense, used as fluorescent voltage indicator (protein)
chain: MDPIALQAGYDLLGDGRPETLWLGIGTLLMLIGTFYFLVRGWGVTDKDAREYYAVTILVPGIASAAYLSMFFGIGLTEVTVGGEMLDIYYARYADWLFTTPLLLLDLALLAKVDRVTIGTLVGVDALMIVTGLIGALSHTAIARYSWWLFSTICMIVVLYFLATSLRSAAKERGPEVASTFNTLTALVLVLWTAYPILWIIGTEGAGVVGLGIETLLFMVLDVTAKVGFGFILLRSRAILGDTEAPEPSAGADVSAAD
modifications: Halorubrum sodomense
notes: Archaerhodopsin 3, light-driven proton pump from Halorubrum sodomense, used as fluorescent voltage indicator
Molecule B1 showed a voltage steps resolved/reported in the data set with HEK-293 cells (HEK cells) of 10 mV. For the same molecule, in the data set on HEK-293 cells (continuous 10-minute exposure, 640 nm, 540 W/cm2), the photobleaching is on record as 17%. Further, in the data set on HEK-293 cells (sinusoidal membrane potential, f=1 kHz), the “fluorescence oscillation amplitude retained relative to low-frequency amplitude” value is 55%. For the same molecule, the “response time to a step in membrane potential” value with HEK-293 cells (steps between −70 mV and +30 mV) is less than 0.5 ms. In addition, the “response of fluorescence to a step in membrane potential, time” value in the data set on HEK-293 cells (time resolution of imaging system, rising and falling edge) is no more than 500 μs. The “increase of fluorescence (fold/factor) between −150 mV and +150 mV” value with HEK-293 cells (whole-cell voltage clamp) is listed as 2. Further, the “signal-to-noise ratio in the fluorescence (spike amplitude:baseline noise)” value in data set [1] (2 kHz image acquisition rate) came out at 10.5. Also, the false-positive rate in data set [1] (n=269 spikes) came to 0.7%. In addition, the “change in resting potential or spike frequency during observation” value in data set [1] (up to 4 minutes of cumulative exposure) is listed as “no detectable change in resting potential or spike frequency”. The light-induced outward photocurrent in the data set on neurons is roughly 10 pA.

The values are drawn from patent US9057734B2, “Optogenetic probes for measuring membrane potential” (President and Fellows of Harvard College, priority 2010, dated 2015).
